{"source": "paper PMC6954420", "about": "“Heterochromatin protein 1α interacts with parallel RNA and DNA G-quadruplexes”", "binders": {"B1": {"name": "rC-rich22 (ssRNA)", "RNA": "ACCCAAUCCCAAUCCCAAUCCC"}, "B2": {"name": "Oligo C (structured_DNA)", "DNA": "TGGGTTAGGGTGGGTTAGGGTGGGTTAGGGTGGGTTAGGGT"}, "B3": {"name": "Oligo D (structured_DNA)", "DNA": "TGGGTGGGTTAGGGTGGGTGGGTGGGTTAGGGTGGGT"}, "B4": {"name": "gTEL45 (structured_DNA)", "DNA": "GGGTTAGGGTTAGGGTTAGGGTTAGGGTTAGGGTTAGGGTTAGGG"}, "B5": {"name": "Thy45 (ssDNA)", "DNA": "TTTTTTTTTTTTTTTTTTTTTTTTTTTTTTTTTTTTTTTTTTTTT"}, "B6": {"name": "Oligo F (structured_DNA)", "DNA": "TGGGTTAGGGTTAGGGTGGGTGGGTTAGGGTTAGGGTGGGT"}, "B7": {"name": "Oligo A (structured_DNA)", "DNA": "TGGGTGGGTGGGTGGGTGGGTGGGTGGGTGGGT"}, "B8": {"name": "src3 (structured_DNA)", "DNA": "GGGAGGGAGGGCTGGGGG"}, "B9": {"name": "ckit2 (structured_DNA)", "DNA": "GGGCGGGCGCCAGGGAGGGG"}, "B10": {"name": "kras (structured_DNA)", "DNA": "AGGGCGGTGTGGGAAGAGGGAAGAGGGGGAGG"}, "B11": {"name": "src16 (structured_DNA)", "DNA": "GGGCTGCTGGGACTGGTTGGGAGGGCACTCTGGGG"}, "B12": {"name": "src2 (structured_DNA)", "DNA": "GGGGCAGCTGGGTCGCTCGGGGAACGGGG"}, "B13": {"name": "Oligo G (structured_DNA)", "DNA": "TGGGTTAGGGTTAGGGTTAGGGTGGGTTAGGGTTAGGGTTAGGGT"}, "B14": {"name": "Oligo B (structured_DNA)", "DNA": "TGGGTTGGGTTGGGTTGGGTTGGGTTGGGTTGGGTTGGGT"}, "B15": {"name": "cTEL45 (structured_DNA)", "DNA": "CCCTAACCCTAACCCTAACCCTAACCCTAACCCTAACCCTAACCC"}, "B16": {"name": "LL3rep (structured_DNA)", "DNA": "TCGTTCCGTTTTTCGTTCCGTTTTTCGTTCCGTTTTTCGTTCCGT"}, "B17": {"name": "c-myc2 (structured_DNA)", "DNA": "GGGTGGGTAGGGTGGG"}, "B18": {"name": "bcl2 (structured_DNA)", "DNA": "AGGGGCGGGCGCGGGAGGAAGGGGGCGGGAGCGGGGCTG"}, "B19": {"name": "Oligo E (structured_DNA)", "DNA": "TGGGTGGGTTAGGGTTAGGGTGGGTGGGTTAGGGTTAGGGT"}}, "key": {"[1]": {"target": "T1, HP1α (mouse, UniProt Q61686 1-191)", "T1 sequence (Q61686 whole entry)": "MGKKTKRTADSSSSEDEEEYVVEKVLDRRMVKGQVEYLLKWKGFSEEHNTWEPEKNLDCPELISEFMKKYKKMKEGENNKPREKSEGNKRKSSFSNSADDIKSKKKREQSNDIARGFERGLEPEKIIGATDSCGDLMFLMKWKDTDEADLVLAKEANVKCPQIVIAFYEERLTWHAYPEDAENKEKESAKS", "test": "BLI; BLI: 100 mM KCl, 50 mM NaCl, 20 mM Na phosphate, pH 8 (G4) or pH 7 (i-motif, dsDNA), room temp, 500 nM oligo or titration; EMSA: 50 mM Tris-HCl pH 7.5, 100 mM KCl, 0.5 mM EDTA, 0.5 mM DTT, 0.1 mg/ml BSA, room temp 1 h", "conditions": "protein: recombinant, tags: N-terminal His6 (pPROEX HTb), chain copies: 2"}, "[2]": {"target": "T1, HP1α", "test": "BLI; K+; BLI: 100 mM KCl, 50 mM NaCl, 20 mM Na phosphate, pH 8 (G4) or pH 7 (i-motif, dsDNA), room temp, 500 nM oligo or titration; EMSA: 50 mM Tris-HCl pH 7.5, 100 mM KCl, 0.5 mM EDTA, 0.5 mM DTT, 0.1 mg/ml BSA, room temp 1 h", "conditions": "protein: recombinant, tags: N-terminal His6 (pPROEX HTb), chain copies: 2"}, "[3]": {"target": "HP1β (mouse, UniProt P83917 1-185)", "sequence (P83917 whole entry)": "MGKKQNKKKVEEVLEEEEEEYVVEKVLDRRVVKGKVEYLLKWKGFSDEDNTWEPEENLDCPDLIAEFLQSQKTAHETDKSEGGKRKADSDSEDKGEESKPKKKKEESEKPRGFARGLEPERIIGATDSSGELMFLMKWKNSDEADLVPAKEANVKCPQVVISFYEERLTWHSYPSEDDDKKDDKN", "test": "BLI; K+; BLI: 100 mM KCl, 50 mM NaCl, 20 mM Na phosphate, pH 8 (G4) or pH 7 (i-motif, dsDNA), room temp, 500 nM oligo or titration; EMSA: 50 mM Tris-HCl pH 7.5, 100 mM KCl, 0.5 mM EDTA, 0.5 mM DTT, 0.1 mg/ml BSA, room temp 1 h", "conditions": "protein: recombinant; tags: N-terminal His6 (pPROEX HTb); chain copies: 2; antiparallel G4"}, "[4]": {"target": "HP1α 3K-A (mouse, UniProt Q61686 1-191, K104A;K105A;K106A)", "sequence (Q61686 whole entry K104A/K105A/K106A)": "as the sequence (Q61686 whole entry) above, with K104A, K105A, K106A counted along it", "test": "BLI; K+; BLI: 100 mM KCl, 50 mM NaCl, 20 mM Na phosphate, pH 8 (G4) or pH 7 (i-motif, dsDNA), room temp, 500 nM oligo or titration; EMSA: 50 mM Tris-HCl pH 7.5, 100 mM KCl, 0.5 mM EDTA, 0.5 mM DTT, 0.1 mg/ml BSA, room temp 1 h", "conditions": "protein: recombinant; tags: N-terminal His6 (pPROEX HTb); chain copies: 2; antiparallel G4"}, "[5]": {"target": "HP1γ (mouse, UniProt P23198 1-183)", "sequence (P23198 whole entry)": "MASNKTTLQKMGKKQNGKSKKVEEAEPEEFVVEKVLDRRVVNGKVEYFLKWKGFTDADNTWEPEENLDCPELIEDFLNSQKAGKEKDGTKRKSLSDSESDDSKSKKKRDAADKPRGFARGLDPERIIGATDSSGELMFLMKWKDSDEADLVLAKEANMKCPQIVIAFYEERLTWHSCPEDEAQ", "test": "BLI; K+; BLI: 100 mM KCl, 50 mM NaCl, 20 mM Na phosphate, pH 8 (G4) or pH 7 (i-motif, dsDNA), room temp, 500 nM oligo or titration; EMSA: 50 mM Tris-HCl pH 7.5, 100 mM KCl, 0.5 mM EDTA, 0.5 mM DTT, 0.1 mg/ml BSA, room temp 1 h", "conditions": "protein: recombinant; tags: N-terminal His6 (pPROEX HTb); chain copies: 2; antiparallel G4"}, "[6]": {"target": "T1, HP1α", "test": "BLI; pH 7; BLI: 100 mM KCl, 50 mM NaCl, 20 mM Na phosphate, pH 8 (G4) or pH 7 (i-motif, dsDNA), room temp, 500 nM oligo or titration; EMSA: 50 mM Tris-HCl pH 7.5, 100 mM KCl, 0.5 mM EDTA, 0.5 mM DTT, 0.1 mg/ml BSA, room temp 1 h", "conditions": "protein: recombinant, tags: N-terminal His6 (pPROEX HTb), chain copies: 2"}}, "data": [{"binder": "B1", "values": [{"measurement": "binding result", "setting": "[1]", "value": "no binding"}]}, {"binder": "B2", "values": [{"measurement": "Kd", "setting": "[2]; parallel G4", "value": "78.2 ± 0.3", "unit": "nM"}]}, {"binder": "B3", "values": [{"measurement": "Kd", "setting": "[2]; parallel G4", "value": "52.6 ± 1.1", "unit": "nM"}]}, {"binder": "B4", "values": [{"measurement": "binding result", "setting": "[3]", "value": "no binding"}, {"measurement": "binding result", "setting": "[4]", "value": "no binding"}, {"measurement": "binding result", "setting": "[2]; antiparallel G4", "value": "no binding"}, {"measurement": "binding result", "setting": "[5]", "value": "no binding"}]}, {"binder": "B5", "values": [{"measurement": "binding result", "setting": "[1]; unstructured", "value": "no binding"}]}, {"binder": "B6", "values": [{"measurement": "Kd", "setting": "[2]; parallel G4", "value": "61.7 ± 1.5", "unit": "nM"}]}, {"binder": "B7", "values": [{"measurement": "Kd", "setting": "[2]; parallel G4", "value": "86.8 ± 0.2", "unit": "nM"}]}, {"binder": "B8", "values": [{"measurement": "Kd", "setting": "[2]; parallel G4", "value": "140 ± 2", "unit": "nM"}]}, {"binder": "B9", "values": [{"measurement": "Kd", "setting": "[2]; parallel G4", "value": "199 ± 3", "unit": "nM"}]}, {"binder": "B10", "values": [{"measurement": "Kd", "setting": "[2]; parallel G4", "value": "68.8 ± 0.7", "unit": "nM"}]}, {"binder": "B11", "values": [{"measurement": "Kd", "setting": "[2]; antiparallel G4", "value": "1630 ± 1700", "unit": "nM"}]}, {"binder": "B12", "values": [{"measurement": "Kd", "setting": "[2]; antiparallel G4", "value": "410 ± 20", "unit": "nM"}]}, {"binder": "B13", "values": [{"measurement": "binding result", "setting": "[2]; antiparallel or hybrid G4", "value": "no binding"}]}, {"binder": "B14", "values": [{"measurement": "Kd", "setting": "[2]; parallel G4, monomer-dimer equilibrium", "value": "69.1 ± 0.9", "unit": "nM"}]}, {"binder": "B15", "values": [{"measurement": "binding result", "setting": "[6]; i-motif (partial at pH 7)", "value": "no binding"}]}, {"binder": "B16", "values": [{"measurement": "binding result", "setting": "[6]; mini-i-motif", "value": "no binding"}]}, {"binder": "B17", "values": [{"measurement": "Kd", "setting": "[2]; parallel G4, at least dimer on native PAGE", "value": "610 ± 40", "unit": "nM"}]}, {"binder": "B18", "values": [{"measurement": "Kd", "setting": "[2]; parallel G4", "value": "93.5 ± 1.6", "unit": "nM"}]}, {"binder": "B19", "values": [{"measurement": "Kd", "setting": "[2]; parallel G4", "value": "43.8 ± 1", "unit": "nM"}]}]}
